Data: patent publication US20220152100A1, “METHODS FOR CONTROLLED ACTIVATION OR ELIMINATION OF THERAPEUTIC CELLS” (Bellicum Pharmaceuticals, Inc., priority 2014, published 2022)
Numbering of substitutions follows the chain as printed. Numbers in names are those of the source.

B1: D330A-N405Q: chimeric modified Caspase-9 polypeptide, double mutant, SEQ ID NO: 28 (protein)
chain: GFGDVGALESLRGNADLAYILSMEPCGHCLIINNVNFCRESGLRTRTGSNIDCEKLRRRFSSLHFMVEVKGDLTAKKMVLALLELARQDHGALDCCVVVILSHGCQASHLQFPGAVYGTDGCPVSVEKIVNIFNGTSCPSLGGKPKLFFIQACGGEQKDHGFEVASTSPEDESPGSNPEPDATPFQEGLRTFDQLAAISSLPTPSDIFVSYSTFPGFVSWRDPKSGSWYVETLDDIFEQWAHSEDLQSLLLRVANAVSVKGIYKQMPGCFQFLRKKLFFKTS
B2: D327G: chimeric modified Caspase-9 polypeptide (protein)
chain: VDGFGDVGALESLRGNADLAYILSMEPCGHCLIINNVNFCRESGLRTRTGSNIDCEKLRRRFSSLHFMVEVKGDLTAKKMVLALLELARQDHGALDCCVVVILSHGCQASHLQFPGAVYGTDGCPVSVEKIVNIFNGTSCPSLGGKPKLFFIQACGGEQKDHGFEVASTSPEDESPGSNPEPDATPFQEGLRTFGQLDAISSLPTPSDIFVSYSTFPGFVSWRDPKSGSWYVETLDDIFEQWAHSEDLQSLLLRVANAVSVKGIYKQMPGCFNFLRKKLFFKTSASRA
B3: D327K: chimeric modified Caspase-9 polypeptide (protein)
chain: B2 chain with G195K
B4: Q328R: chimeric modified Caspase-9 polypeptide (protein)
chain: B2 chain with G195D, Q196R
B5: L329K: chimeric modified Caspase-9 polypeptide (protein)
chain: B2 chain with G195D, L197K
B6: D327R: chimeric modified Caspase-9 polypeptide (protein)
chain: B2 chain with G195R
B7: Q328K: chimeric modified Caspase-9 polypeptide (protein)
chain: B2 chain with G195D, Q196K
B8: F326K: chimeric modified Caspase-9 polypeptide (protein)
chain: B2 chain with F194K, G195D
B9: A331K: chimeric modified Caspase-9 polypeptide (protein)
chain: B2 chain with G195D, A199K
B10: L329G: chimeric modified Caspase-9 polypeptide (protein)
chain: B2 chain with G195D, L197G
B11: N405A: chimeric modified Caspase-9 polypeptide (protein, UniProt P55211 1-416, looked up, variant N405A)
chain: MDEADRRLLRRCRLRLVEELQVDQLWDALLSRELFRPHMIEDIQRAGSGSRRDQARQLIIDLETRGSQALPLFISCLEDTGQDMLASFLRTNRQAAKLSKPTLENLTPVVLRPEIRKPEVLRPETPRPVDIGSGGFGDVGALESLRGNADLAYILSMEPCGHCLIINNVNFCRESGLRTRTGSNIDCEKLRRRFSSLHFMVEVKGDLTAKKMVLALLELAQQDHGALDCCVVVILSHGCQASHLQFPGAVYGTDGCPVSVEKIVNIFNGTSCPSLGGKPKLFFIQACGGEQKDHGFEVASTSPEDESPGSNPEPDATPFQEGLRTFDQLDAISSLPTPSDIFVSYSTFPGFVSWRDPKSGSWYVETLDDIFEQWAHSEDLQSLLLRVANAVSVKGIYKQMPGCFAFLRKKLFFKTS
modifications: chimeric, fused to dimerization domain
notes: chimeric modified Caspase-9 polypeptide
B12: G402I: chimeric modified Caspase-9 polypeptide (protein, UniProt P55211 1-416, looked up, variant G402I)
chain: B11 chain with G402I, A405N
modifications: chimeric, fused to dimerization domain
notes: as for B11
B13: ^402GCFNF^406ISAQT (Casp-10): Caspase-9 with dimerization residues 402-406 replaced by those of Caspase-10 (protein, UniProt P55211 1-416, looked up, variant G402I C403S F404A N405Q F406T)
chain: B11 chain with G402I, C403S, F404A, A405Q, F406T
modifications: Caspase-10 dimerization residues swapped in
B14: N405F: chimeric modified Caspase-9 polypeptide (protein, UniProt P55211 1-416, looked up, variant N405F)
chain: B11 chain with A405F
modifications: chimeric, fused to dimerization domain
notes: as for B11
B15: G402Y: chimeric modified Caspase-9 polypeptide (protein, UniProt P55211 1-416, looked up, variant G402Y)
chain: B11 chain with G402Y, A405N
modifications: chimeric, fused to dimerization domain
notes: as for B11
B16: ^402GCFNF^406AAAAA: Caspase-9 with dimerization residues 402-406 replaced by AAAAA (protein, UniProt P55211 1-416, looked up, variant G402A C403A F404A N405A F406A)
chain: B11 chain with G402A, C403A, F404A, F406A
B17: C403P: chimeric modified Caspase-9 polypeptide (protein, UniProt P55211 1-416, looked up, variant C403P)
chain: B11 chain with C403P, A405N
modifications: chimeric, fused to dimerization domain
notes: as for B11

tested on: HEK293T/16 cells; assay: SEAP-based surrogate killing assay of iCasp9 mutants; assay type: cell-based, human; settings: 1 μg iCasp9 per million cells
Experimental: Early passage HEK293T/16 cells (ATCC, Manassas, Va.) were maintained in IMDM, GlutaMAX™ (Life Technologies, Carlsbad, Calif.) supplemented with 10% FBS, 100 U/mL penicillin, and 100 […] until transfection in a humidified, 37° C., 5% CO2/95% air atmosphere. Cells in logarithmic-phase growth were transiently transfected with 800 ng to 2 μg of expression plasmid encoding iCasp9 mutants and 500 ng of an expression plasmid encoding SRα promoter driven SEAP per million cells in 15-mL conical tubes. […] GeneJammer® Transfection Reagent at a ratio of 3 μl per ug of plasmid DNA was used to transiently transfect HEK293T/16 cells in the absence of antibiotics. 100 μl or 2 mL of the transfection mixture was added to each well in 96-well or 6-well plate, respectively.
Briefly, after 65° C. heat denaturation for 45 minutes to reduce background caused by endogenous (and serum-derived) alkaline phosphatases that are sensitive to heat, 5 μl of supernatants was added to 95 μl of PBS and added to 100 μl of substrate buffer, containing 1 μl of 100 mM 4-methylumbelliferyl phosphate (4-MUP; Sigma, St. Louis, Mo.) re-suspended in 2 M diethanolamine. Hydrolysis of 4-MUP by SEAP produces a fluorescent […] with excitation/emission (355/460 nm), which can be easily measured. Assays were performed in black opaque 96-well plates to minimize fluorescence leakage between wells. […] of the mixture was seeded onto each well of a 96-well plate. […] For the assay, 4-methylumbelliferyl phosphate substrate was hydrolyzed by SEAP to 4-methylumbelliferon, a metabolite that can be excited with 364 nm and detected with an emission filter of 448 nm. Since SEAP is used as a marker for cell viability, reduced SEAP reading corresponds with increased iCaspase-9 activities.

| Molecule | relative SEAP activity Units (basal, without AP1903) |
| --- | --- |
| B1 | 205772 |

same assay, conditions: 2 μg iCasp9 per million cells

| Molecule | relative SEAP activity Units (basal, without AP1903) |
| --- | --- |
| B1 | 174366 |

same assay, conditions: in words, versus wild type

| Molecule | effect on basal / catalytic activity |
| --- | --- |
| B2 | did not lower basal activity |
| B3 | did not lower basal activity |
| B4 | did not lower basal activity |
| B5 | did not lower basal activity |
| B6 | did not lower basal activity |
| B7 | did not lower basal activity |
| B8 | did not lower basal activity |
| B9 | did not lower basal activity |
| B10 | did not lower basal activity |
| B11 | no effect |
| B12 | catalytically inactive |
| B13 | reduced basal activity but higher IC50 |
| B14 | lowered basal activity |
| B15 | catalytically inactive |
| B16 | catalytically inactive |
| B17 | catalytically inactive |
| B1 | intermediate |
